The text below walks through data of US20050266512.

For this series, the system named is native proaerolysin.

With trypsin, the “decrease in absorbance (erythrocyte lysis in response to channel formation by active aerolysin)” value is recorded as “The solid line represents native proaerolysin activated with trypsin”.
